# Experimental data: patent publication US20250388678A1, “Methods, Combinations, and Uses for the Treatment of Muscle Invasive Bladder Cancer” (AstraZeneca AB, priority 2024, published 2025)
# What was measured:
# [1] = test system: muscle-invasive bladder cancer; test: NIAGARA phase III study: pathological complete response (pCR) at radical cystectomy; format: in vivo, human
# Method: (§1) Dual primary efficacy endpoints evaluated in this study were event-free survival (EFS; per blinded independent central review [BICR]) and pathological complete response (pCR; evaluated centrally). Therefore, if either the EFS endpoint or pCR endpoint was achieved, the study was considered a success.
# Primary tumors and sampled lymph nodes were assessed for pathological response to neoadjuvant treatment by central pathology review using recommendations from the IASLC.
# pCR efficacy assessment was accomplished by pathological review of radical cystectomy samples. EFS efficacy assessment were assessed by either RECIST 1.1 on imaging scans by pathology on biopsy samples if required.
# [2] = NIAGARA phase III study: adverse events and immune-mediated adverse events; format: in vivo
# From the text: Adverse Events (AEs), Serious Adverse Events (SAE), and immune-mediated adverse events (imAE) were collected from the time of the patient signing the informed consent form until follow-up period as completed (90 days after last dose of treatment (Arm 1) or adjuvant phase study visits (Arm 2). Tables 3 and 4 outline the variables collected for adverse events and severe adverse events.
# AESIs for durvalumab include but are not limited to events with a potential inflammatory or immune-mediated mechanism and which may require more frequent monitoring and/or interventions such as steroids, immunosuppressants, and/or hormone replacement therapy. These AESIs are closely monitored in clinical studies with durvalumab monotherapy and combination therapy. An imAE is defined as an AESI that is associated with drug exposure, required the use of systemic steroids or other immunosuppressants and/or endocrine therapy for specific endocrine events, is consistent with an immune-mediated MOA, and where there is no clear alternate etiology.
# Serologic, immunologic, and histologic (biopsy) data, as appropriate, were used to support an imAE diagnosis. Appropriate efforts were made to rule out neoplastic, infectious, metabolic, toxin, or other etiologic causes of the imAE.
# The overall safety profile is consistent with the known safety profile of durvalumab and chemotherapy. The addition of durvalumab to chemotherapy had no detrimental impact on backbone chemotherapy administration. AEs leading to treatment discontinuation in neoadjuvant phase were balanced between the two arms. The number of patients not undergoing radical surgery because of AEs due to neoadjuvant treatment was balanced in both arms. Rates of grade 3 or 4 AEs and AEs with outcome of death were similar between the two arms (See Table 6). The overall study period included AEs that occurred between the first dose of study treatment, and whichever occurred first: 1) 90 days after the last dose of treatment, surgery, or last adjuvant visit; 2) date of first dose of subsequent anti-cancer therapy; or 3) data cut-off date.
# [3] = test system: xenograft model; conditions: via a T-cell dependent mechanism; cited from earlier work
# [4] = target: PD-L1 (Homo sapiens, UniProt Q9NZQ7); conditions: in vitro; cited from earlier work
# Chain of PD-L1 (Q9NZQ7 19-290): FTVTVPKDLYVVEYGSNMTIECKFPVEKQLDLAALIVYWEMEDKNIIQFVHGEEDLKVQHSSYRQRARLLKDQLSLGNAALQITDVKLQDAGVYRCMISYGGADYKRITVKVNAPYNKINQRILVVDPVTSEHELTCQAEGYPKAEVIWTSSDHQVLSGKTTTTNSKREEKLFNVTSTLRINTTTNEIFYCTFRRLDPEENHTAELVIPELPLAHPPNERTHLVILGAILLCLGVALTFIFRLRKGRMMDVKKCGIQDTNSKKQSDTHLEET
# [5] = test system: muscle-invasive bladder cancer; test: NIAGARA phase III study: survival efficacy endpoints (EFS, OS, MFS, DSS, DFS); format: in vivo, human
# From the text: The NIAGARA (NCT03732677) study described herein is a phase III, randomized, open-label, multi-center global study of durvalumab in combination with neoadjuvant gemcitabine+cisplatin before cystectomy (surgery to remove the bladder) followed by durvalumab as adjuvant monotherapy in patients with histologically or cytologically documented, resectable muscle-invasive bladder cancer and transitional cell carcinoma of the urothelium.
# The study enrolled 1530 patients and randomized 1063 of those the patients in a 1:1 ratio to receive durvalumab+Gemcitabine+Cisplatin (D+G+C) combination therapy every three weeks (q3w) (Arm 1) or G+C combination therapy q3w (Arm 2) for 4 cycles of neoadjuvant chemotherapy prior to radical cystectomy. Patients started adjuvant durvalumab or placebo administration following surgery as soon as clinically feasible and within 42-120 days following surgery from surgery. Following radical cystectomy and during adjuvant therapy, patients in Arm 1 received durvalumab monotherapy every 4 weeks (q4w) for 8 additional cycles, and patients in Arm 2 received no adjuvant treatment.
# Patients received a combination therapy comprising 1500 mg durvalumab or placebo via intravenous (IV) infusion q3w for up to a maximum of 4 cycles prior to surgery and a platinum therapy consisting of cisplatin and gemcitabine, the dose dependent on renal function. Patients having a creatinine clearance rate of about ≥60 mL/min, were administered cisplatin at a dose of about 70 mg/m^2 on day 1 of each cycle; and (b) gemcitabine at a dose of about 1000 mg/m^2 on days 1 and 8 of each cycle every 3 weeks (q3w) for a total of four cycles. Patients having a creatinine clearance rate of about ≥40 mL/min to <60 mL/min, were administered cisplatin at a dose of about 70 mg/m^2 on day 1 of each cycle; and (b) gemcitabine at a dose of about 1000 mg/m^2 on days 1 and 8 of each cycle every 3 weeks (q3w) for a total of four cycles.
# A radical cystectomy was performed as soon as possible after completion of fourth administration of the combination therapy. The radical cystectomy was performed between […] following the last administration of the combination therapy. Male patients underwent radial cytoprostatectomy and urinary diversion along with bilateral pelvic lymph node dissection. Female patients underwent radical cystectomy. Elective hysterectomy and bilateral salpingectomy was optionally performed if no gross evidence of oncologic involvement was noted by the surgeon. Oophorectomy was omitted if clinically indicated. A urinary diversion creation was established via an ileal conduit, ileal neobladder, Indiana Pouch, or as per local practice. Bilateral pelvic lymph node dissection included following template to include the 1) external iliac, 2) obturator, and 3) internal iliac nodes, and 4) common iliac nodes to the level of the ureteric crossing and included a lymph node classified as cN1 at baseline if one was present. Removal of other nodes is per the surgeon's discretion. The boundaries of the template were the circumflex iliac vein and Cloquet's node, laterally by the genitofemoral nerve, medially by the bladder, posteriorly by the obturator fossa, and proximally to the ureter. Radical cystectomy was mandatory study procedure for all patients unless a patient is only able to undergo a partial cystectomy.
# as §1
# Secondary endpoints included overall survival (OS), and evaluation of the primary outcome in the PD-L1 high subgroup; pharmacokinetics and immunogenicity; patient-reported outcomes; and safety. […]
# [6] = durvalumab arm vs comparator arm
# [7] = Safety Analysis Set, number of patients
# [8] = ITT, durvalumab arm vs comparator arm
# [9] = ITT, of 533 (durvalumab arm) / 530 (comparator arm)
# [10] = non-pCR subgroup, durvalumab vs comparator, exploratory post hoc
# [11] = pCR subgroup, durvalumab vs comparator, exploratory post hoc
# [12] = patients with radical cystectomy and post-RC baseline scan, vs comparator arm
substance,measurement,setting,value
"Durvalumab: antibody that selectively binds PD-L1; trial arm: durvalumab+gemcitabine+cisplatin before radical cystectomy, then adjuvant durvalumab monotherapy",patients with pCR at the time of the radical cystectomy,[1]; ITT,37.3%
same,difference in pCR with durvalumab in addition to chemotherapy,[1]; [6],~10%
same,pCR odds ratio,[1]; [6],1.60
same,pCR rates among patients that underwent RC,"[1]; durvalumab arm=469 patients, comparator arm=441 patients",increased
same,Anemia (%),[2]; Safety Analysis Set,(38.7) %
same,Asthenia (%),[2]; Safety Analysis Set,(17.5) %
same,Blood creatinine increased (%),[2]; Safety Analysis Set,(18.5) %
same,Constipation (%),[2]; Safety Analysis Set,(38.7) %
same,Decreased appetite (%),[2]; Safety Analysis Set,(26.6) %
same,Diarrhea (%),[2]; Safety Analysis Set,(20.6) %
same,Fatigue (%),[2]; Safety Analysis Set,(36.0) %
same,Nausea (%),[2]; Safety Analysis Set,(53.6) %
same,Neutropenia (%),[2]; Safety Analysis Set,(25.8) %
same,Neutrophil count decreased (%),[2]; Safety Analysis Set,(15.3) %
same,Patients with any AE (%),[2]; Safety Analysis Set,(99.4) %
same,Pruritis (%),[2]; Safety Analysis Set,(15.1) %
same,Pyrexia (%),[2]; Safety Analysis Set,(20.8) %
same,Urinary tract infection (%),[2]; Safety Analysis Set,(30.0) %
same,Vomiting (%),[2]; Safety Analysis Set,(19.2) %
same,"Anemia, number",[2]; [7],205
same,"Asthenia, number",[2]; [7],93
same,"Blood creatinine increased, number",[2]; [7],98
same,"Constipation, number",[2]; [7],205
same,"Decreased appetite, number",[2]; [7],141
same,"Diarrhea, number",[2]; [7],109
same,"Fatigue, number",[2]; [7],191
same,"Nausea, number",[2]; [7],284
same,"Neutropenia, number",[2]; [7],137
same,"Neutrophil count decreased, number",[2]; [7],81
same,"Patients with any AE, number",[2]; [7],527
same,"Pruritis, number",[2]; [7],80
same,"Pyrexia, number",[2]; [7],110
same,"Urinary tract infection, number",[2]; [7],159
same,"Vomiting, number",[2]; [7],102
same,"AEs leading to discontinuation of NAC, %",[2]; in vivo,(13.6) %
same,"AEs leading to discontinuation of adjuvant durvalumab, %",[2]; in vivo,(7.8) %
same,"AEs leading to discontinuation of neoadjuvant durvalumab, %",[2]; in vivo,(9.4) %
same,"AEs leading to patient not undergoing RC, %",[2]; in vivo,(1.1) %
same,"additional imAEs: dermatitis/rash, renal events, diarrhea/colitis, pneumonitis (each)",[2]; in vivo,≤ 2%
same,imAE hyperthyroid events,[2]; in vivo,3%
same,imAE hypothyroid events,[2]; in vivo,10%
same,"imAEs resolved at data cutoff, number of patients",[2]; of 111 (durvalumab arm) / 16 (comparator arm),45 patients
same,"imAEs reported, number of patients",[2]; of 530 (durvalumab arm) / 526 (comparator arm),111 patients
same,"imAEs resolved at data cutoff, percent of patients",[2]; of patients with imAEs,41%
same,"AEs leading to delay in surgery, %",[2]; outside recommended timeframe for RC of 56 days after last dose of NAC,(2.0) %
same,"AEs leading to discontinuation of study treatment, %",[2]; overall study period,(21) %
same,"AEs possibly related to any treatment: Max grade 3 or 4, %",[2]; overall study period,(40.6) %
same,"AEs possibly related to any treatment: Outcome of death, %",[2]; overall study period,(0.6) %
same,"AEs with outcome of death, %",[2]; overall study period,(5.1) %
same,"Any-grade AEs possibly related to any treatment, %",[2]; overall study period,(94.7) %
same,"Any-grade AEs, %",[2]; overall study period,(99.4) %
same,"Any-grade AEs: Max grade 3 or 4, %",[2]; overall study period,(69.4) %
same,"SAEs, %",[2]; overall study period,(61.5) %
same,imAEs grade 3/4,[2]; overall study period,3%
same,"imAEs reported, percent of patients","[2]; overall study period, any grade",21%
same,effect on tumor growth in a xenograft model,[3],inhibits tumor growth
same,effect on PD-L1-mediated suppression of human T-cell activation,[4],relieve PD-L1-mediated suppression of human T-cell activation
same,"death from bladder cancer, percent of patients",[5]; ITT,15.9%
same,"patients with distant metastases or death (MFS events), percent",[5]; ITT,28.5%
same,EFS Hazard Ratio (HR),"[5]; ITT population, durvalumab+cisplatin+gemcitabine vs cisplatin+gemcitabine, BICR, DCO April 2024",0.68
same,probability of 24-month metastasis-free survival,"[5]; ITT, 24 months",75.1%
same,disease-specific survival hazard ratio (HR),[5]; [8],0.69
same,metastasis-free survival hazard ratio (HR),[5]; [8],0.67
same,reduction in risk of death from bladder cancer (disease-specific survival),[5]; [8],31%
same,reduction in the relative risk of death from any cause (OS),[5]; [8],25%
same,reduction in risk of developing a distant metastasis or dying (metastasis-free survival),"[5]; ITT, durvalumab arm vs comparator arm, greater than 40 month follow-up",33%
same,OS hazard ratio (HR),"[5]; ITT, durvalumab arm vs comparator arm, interim analysis",0.75
same,"death from bladder cancer, number of patients",[5]; [9],85 patients
same,"patients with distant metastases or death (MFS events), number",[5]; [9],152 patients
same,24-month probability of disease-free survival,"[5]; ITT, under heading Disease Specific Survival, 24 months",89.2%
same,24-month EFS rate,[5]; Non-pCR subgroup,53%
same,24-month OS rate,[5]; Non-pCR subgroup,74%
same,"DFS HR, non-pCR group","[5]; non-pCR group, vs comparator arm, exploratory post hoc",0.82
same,"reduction in relative risk tumor growth, tumor spreading, not undergoing surgery or dying",[5]; non-pCR patients,23%
same,reduction in the relative risk of dying from any cause,[5]; non-pCR patients,16%
same,"EFS HR, non-pCR patients",[5]; [10],0.77
same,"OS HR, non-pCR patients",[5]; [10],0.84
same,"DFS HR, pCR group","[5]; pCR group, vs comparator arm, exploratory post hoc",0.58
same,24-month EFS rate,[5]; pCR subgroup,92%
same,24-month OS rate,[5]; pCR subgroup,96%
same,"EFS HR, patients with pCR",[5]; [11],0.58
same,"OS HR, patients with pCR",[5]; [11],0.72
same,reduction in the relative risk of dying from any cause,[5]; patients achieving pCR,28%
same,"reduction in relative risk of tumor growth, tumor spreading, not undergoing surgery or dying",[5]; patients that achieved pCR,42%
same,DFS hazard ratio (HR),[5]; [12],0.69
same,reduced risk of disease recurrence or death (DFS),[5]; [12],31%
same,"DFS HR, divergent or other histologic subtypes","[5]; total n=103, vs comparator arm",0.45
